Residue numbers refer to the chain shown, from its start. Names may count otherwise.
B1: Wild type (Wt) peroxiredoxin 6 (Prdx6), recombinant rat (enzyme)
chain: MPGGLLLGDEAPNFEANTTIGHIRFHDFLGDSWGILFSHPRDFTPVCTTELGRAAKLAPEFAKRNVKLIALSIDSVEDHFAWSKDINAYNGAAPTEKLPFPIIDDKDRDLAILLGMLDPAEKDEKGMPVTARVVFIFGPDKKLKLSILYPATTGRNFDEILRVVDSLQLTASNPVATPVDWKKGESVMVLPTLPEEEAKQLFPKGVFTKELPSGKKYLRYTPQP
B2: H79A mutant of rat Prdx6 (enzyme)
chain: B1 chain with H79A
B3: D42A mutant of rat Prdx6 (enzyme)
chain: B1 chain with D42A

Target: the molecule itself
Assay: dynamic light scattering
In the case of B1, the “stoichiometry N” value is reported as 2. In the case of B2, the “stoichiometry N” value is reported as 2. With B3 the “stoichiometry N” value was 2.

Source: publication PMC11897370 (Scientific Reports, 2025)
